Here are results for three molecules from patent US20230084763A1 (published 2023).

As a reminder, the Kd is the equilibrium constant for the complex coming apart. A higher Kd goes with a looser complex.

Assay [1] addresses T1, CD20 (UniProt P11836 1-297).
T1 chain: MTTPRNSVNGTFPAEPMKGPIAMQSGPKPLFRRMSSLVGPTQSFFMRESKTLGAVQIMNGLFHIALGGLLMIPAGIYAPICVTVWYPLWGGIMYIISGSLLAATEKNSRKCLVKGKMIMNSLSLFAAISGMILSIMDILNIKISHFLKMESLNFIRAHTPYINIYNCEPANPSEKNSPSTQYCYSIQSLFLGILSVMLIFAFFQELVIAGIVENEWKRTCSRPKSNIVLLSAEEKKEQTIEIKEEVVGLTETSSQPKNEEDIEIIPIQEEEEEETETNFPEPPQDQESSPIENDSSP
The experiment in a line: bio-layer interferometry; scFv, Run 1.

The target in assay [2] is T1, CD20. The experiment in a line: bio-layer interferometry; scFv, Run 2. Background: In BLI a coated tip is dipped into the sample, and binding shifts an interference pattern.
Assay [3] concerns the target T1, CD20. The experiment in a line: bio-layer interferometry; scFv, Avg of 3 runs.
In assay [4] the target is T1, CD20. The experiment in a line: bio-layer interferometry; scFv, Run 3.

B1: Leu16 (antibody, V domains shown)
VH: EVQLQQSGAELVKPGASVKMSCKASGYTFTSYNMHWVKQTPGQGLEWIGAIYPGNGDTSYNQKFKGKATLTADKSSSTAYMQLSSLTSEDSADYYCARSNYYGSSYWFFDVWGAGTTVTVSS
VL: DIVLTQSPAILSASPGEKVTMTCRASSSVNYMDWYQKKPGSSPKPWIYATSNLASGVPARFSGSGSGTSYSLTISRVEAEDAATYYCQQWSFNPPTFGGGTKLEIK
In the case of B1, the Kd with CD20 [1] amounted to 157 nM; with CD20 [2] it was 127 nM; with CD20 [3], 138 nM; with CD20 [4], 131 nM.

B2: Rituximab (antibody, V domains shown)
VH: QVQLQQPGAELVKPGASVKMSCKASGYTFTSYNMHWVKQTPGRGLEWIGAIYPGNGDTSYNQKFKGKATLTADKSSSTAYMQLSSLTSEDSAVYYCARSTYYGGDWYFNVWGAGTTVTVSS
VL: QIVLSQSPAILSASPGEKVTMTCRASSSVSYIHWFQQKPGSSPKPWIYATSNLASGVPVRFSGSGSGTSYSLTISRVEAEDAATYYCQQWTSNPPTFGGGTKLEIK
For the molecule B2, the Kd with CD20 [3] amounted to 119 nM; with CD20 [4], 122 nM.

B3: Hybrid (antibody, V domains shown)
VH: QVQLQQPGAELVKPGASVKMSCKASGYTFTSYNMHWVKQTPGRGLEWIGAIYPGNGDTSYNQKFKGKATLTADKSSSTAYMQLSSLTSEDSAVYYCARSNYYGSSYWFFDVWGAGTTVTVSS
VL: QIVLSQSPAILSASPGEKVTMTCRASSSVNYMDWFQQKPGSSPKPWIYATSNLASGVPVRFSGSGSGTSYSLTISRVEAEDAATYYCQQWSFNPPTFGGGTKLEIK
Turning to B3, the Kd worked out at 75.5 nM with CD20 [1], 95.5 nM with CD20 [2], 84.4 nM with CD20 [3] and 82.2 nM with CD20 [4].
